# Assay results as given in the nanobody polyreactivity screen of Harvey et al. (2022).
# Experiment: yeast display, Sf9 membrane polyspecificity reagent, FACS + sequencing; frameworks hold sequencing errors
# Procedure, shortened: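 Synthetic nanobody libraries on Saccharomyces cerevisiae BJ5465 were galactose-induced for 36–48 hours, stained 1 hour at 4 °C with 10% biotinylated, detergent-solubilized Sf9 membrane reagent and enriched on streptavidin microbeads. FACS then separated cells into low and high (top ~1%) gates by anti-HA (expression) and streptavidin (reagent binding) fluorescence. Genes were colony-PCR amplified, MiSeq 2 × 250 sequenced and CDR-length filtered. A clone's polyreactivity label is that of its gate of origin.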
row,Sequence,polyreactivity (PSR sort gate)
1,QVQLVESGGGLVQAGGSLRLSCAASGLMLGYYAMGWYRQAPGKERELGATIRRGASTYYADSVKGRLTISRDNAKNTVYLQMNSLKPEDTALYYCAAYGHQFQGDYNYWGPGTQVTVSS,low polyreactivity
2,QVQLVESGGGLVQAGGSLRLICAASGSIFPPYAMGWYRQAPGKDREFVAAITISGDSTYYADSVKGRFTISRDNAKNTVYLQMNSLKPEDTAVYYCNADSYAFQYTWGEAYYGLYGYWGQGTQVTVSS,low polyreactivity
3,QVQLVESGGGLVQAGGSLRLSCAASGSIFYGYAMGWYRQAPGKERELVAAIRWSDGSTYYADSVKGRFTISRDNAKNTVYLQMNSLKPEDTAVYYCNADLWVPSYLWGDYWGQGTQVTVSS,low polyreactivity
4,QVQLVESWGGLDQAGGSLRLSCAASGRTIRRYAMGCYRQAPGKERELVASISTSGGSTNADSVKGRFTISRDNSKNTVYLQMNSLKPEDTAVYYCAVRYPRYVRNGDYWGQGTQVTVSS,high polyreactivity
5,QVQLVESGGGLVQAGGSLRLSCAASRITFYPNDMGWDRQAPGKERELVAAITTNDGDTYYADSVKGRFTISRDNAKNTVYLQMISLQPEDTAVYYCAADSGSTSEYEYLGQGTQVTVSS,low polyreactivity
6,QDQLVESGGGLVQARGSLRLSCAASGSIYSRNALGWYRQAPGKERELVAAITYRGGNTYYADSVKGRFTISRDNANNNLYLQMNSLKPEDTAVYYCAADTYGWLYAFEYWGQGTQVTVSS,low polyreactivity
7,QVQLVESGGGLVQAGGSLRLSCAASGRTFGPYAMGWYRQAPGKERELVAAISSSEGSTYYADSVKGRFTISRDNAKNTVYLQMNSLKPEDTAVYYCNARYYLWSTTRWYGYDYWGQGTQVTVSS,high polyreactivity
8,QVQLVESGGGLVHAGGSLRLSCAAAGFTFTYYTMGWYRKAPGKERELVAAITENGGSTYYADSVKWRFTISRDNAKNTVYLQMKSLKPEDPAVYYCNARVWDYGGHGYDYWGQGTQVTVSS,low polyreactivity
9,QVQLVESGGGLVQAGGSLRLSCAASGSTFYAYVMGWYRQAPGKERELVAGISWSGGSTYYADSVKGRFTISRDNAKNTVYLQMNSLKPEDTAVYFFAADYYNTYGYDYWGQGTQVTVSS,low polyreactivity
10,QVQLVESGGGLVQAGGSLRLSCAASGRTFRQYAMGWYRQAPGKERELVARIRWRGGTTYYADSVKGRFTISRDNAKNTVYLQMISLKPEDTAVYYCAADKYGTEYDYWGQGTQVTVSS,high polyreactivity
11,QVQLVESGGGLVQAGGSLRLSCAASGITFRRYAMGWYRQAPGKERELVAVISVSGGRTHYADSVKGRFTISRDNAKNTVYLQMNSLKPEDTAVYYCAAQFSYRYYTDEVGYWGQGTQVTVSS,high polyreactivity
12,QVQLVESGGGLVQAGGSLRLSCAASGRIFGWYAMGWYRQAPGKERELVAGISSSSGSTNYADSVKGRFSISRDNAKNTVYLQMNSLKPEDTAVYYCAADGGGTYYSFYYWGQGTQVTVSS,low polyreactivity
13,QVQLVESGGGLVQAGGSLRLSCAASGSIVHGYTMGWYRQEPGKERELVAAINSGDGSTYADSVKGRFPISRDNAKNTVYLQMNSLKPEDTAVYYCAADDSTLADGGDYWGQGTQVTVSS,low polyreactivity
14,QVQLVESGGGLVQAGGSLRLSCAASGSTFDYYAMGWYRQAPGKEREFVASINWNGARTYYADSVKGRFTISRDNAKNTVYLQMNSLKPEDTAVYYCAAYTKRYLYNYWGQGTQVTVSS,high polyreactivity
15,QVQLVESGGGLVQAGGSLRLSCAASGRIFGYYVMGWYRPAPGKERELVAAISRSGGSTYYADSVKGRFTISRDNAKNTVYLQMNSLKPEDTAVYYCAKRVSTYGFSGYDYWGQGTQVTVSS,high polyreactivity
16,QVQLVESGGGLVQAGGSLRLSCAASGSTFYQYAMGWYRQAPGKERELVAAISKSGGSTYYADSVKGRFTISRDNAKNTVYLQMNSLKPEDTAVYYCATRWIKGRNMDYWGQGTQVTVSS,high polyreactivity
17,QVQLVESGGGLVQAGGSLRLSCAASGITIVRNAMGWYRQAPGKERELVAAISSGGSTYYADSVKGRFTISRDNAKISVYLQMNSLKPEDTAVYYCAAVPEYYEYSPYDYWGQGTQVTVSS,low polyreactivity
18,QVQLVESGGGLVQAGGSLRLSCAASGRIFAYNAMGWYRQAPGKERELVAAISSSDDDTYYADSVKGRFTISRDNAKNTVYLQMNSLKPEDTAAYYCAAEWDTDRLWAGPRGSLYDYWGQGTQVTVSS,high polyreactivity
19,QVQLVESGGGLVQAGGSLRLSCPASGSISYFNAMGGYRQAPGKERELVAAITSCGSTYYADSVKGRFTISRDNAKNSVYLQMNSLKPEDTAVYYCAADDSWFYYGYGYWGQGTQVTVSS,low polyreactivity
20,QVQLVESGGGLFQAGRSLPLSCAASGIIFTQYPMGWYRQAPGKERELVAAISGSGGRTYYADSVKGRFSISRDNEKNTVYLQMKILKPEDTAVYYCAARYARYGNDYWGQCTQVTVSS,high polyreactivity
21,QVQLVESGGGLVQAGGSLRISCAASGLTFQYNAMGWYRQAPGKERELVAAISSSGGSTYYADSVKGRFTISRDNAKNTVYLQMNSLKPEDTAVYYCNAYSQSWNFYGDGDYWVQGTQVTVSS,low polyreactivity
22,QVQLVESGGGLVQAGGSLRLSCAASGSTFGFYAMGWYRQAPGKEREFVAAITWSGGRTNYADSVKGRFTISRDNAKNTVYLQMNSLKPEDTAVYYCAAEGFVTWYRQGQVYYWGQGTQVTVSS,high polyreactivity

row,Sequence,polyreactivity (PSR sort gate)
1,QVQLVQSGGGLVQAGGSLRLSCAASGRIFNNYAMGWYRQAPRKERELLAAISGSGGSTYYADSVKGRFTISRDNAKNTVYLQMNCMKPEDTAVYYCSTSGPQYYSRNFDYWGQGTQVTVSS,low polyreactivity
2,QVQLQERGDGLLQAVGSLRLSFAESGYISGYYYMGWYRQAPGKDRELVAGIDAFGSSTNYADCVKGRFTISRDNAKNTVYLEMNSLKPEDTAVYYCAASPDGERLFSYWGQGTQVTVSS,low polyreactivity
3,QVQLVESGGGIVQAGGSLRLSCAASGSIFYQYAMGWYRQAPGKERELVAAISRSGGSTYYADSVKGRFTISRDNAKNNVYLQMNSLKPVDTAVYYCAARAVRAAYDYWGQGTQVTVSS,low polyreactivity
4,QVQLVESGGGLVQAGGSLRLSCAASGGIFRGYVMGWYRQAPGKERELVAAISYSGGNTYYADSVKGRFTISRDNAKNTVYLQMNSLKPEDTAVYYCDTVRSDFHSDDYWGQGTQVTVSS,low polyreactivity
5,QVQLVESGGGLVQAGGSLRLSCAASGFIFARYAMGWYRQAPGKERELVATISYTGGRRYYADSVKGRFTISRDHANNTVYLQINSLKPEDTAVYYVNAVYSYDRQRHEYWGQGTQVTVSS,high polyreactivity
6,QVQLVESGGGLVQAGGSLRLSCAASGSTLYYNAMGWYRQAPGKESELVAAISWSGGSTYYADSVKGRFTISRDNAKNTVYLQMNSLKPEDTAVYYCAADQSTVLDVGSWGQGTQVTVSS,low polyreactivity
7,QVQLVESGGGLVQAGGSLRLSCAASGGTFRLNAMGWYRQAPGKERELVATITRRGGSTYYADSVKGRFTISRDNAKNTVYLQMNSLKPEDTAVYYCAARDVYRGGLFDYWGQGTQVTVSS,high polyreactivity
8,QVPLVEKGGGLVQAGGSLRLSCAASGFTIGYYAMGWYRQAPGKERELVAASTWRGDTTYYADSVKGRFTISRDNAKNTVYLQMNSLKPEDTAVYYCAAEYEVYFDWSYYYWGQGTQVTVSS,high polyreactivity
9,QVQLVESGGGLVQAGGSLRLSCAASGSIFPSYAMGWYRQAPGKERELVAAISSGGTTNYADSVKGRFTISLDNAKNTVYLQMNSLKPEDTAVYYCAAVRGDSEDRYDHWGQGTQVTVSS,high polyreactivity
10,QVQLVESGGGLVQAGGSLRLSCAASGRIFVYNAMGWYRQAPGKERQLVAAIRNDGSTNYADSVKGRFTISRDNAKNTVYLLMNSLKPEDTAVYYCAKSVTGWRGLWYTPRNYYWGQGTQVTVSS,high polyreactivity
11,QVQLVESGGGLVQAGGSLRLSCAASGRIFSYYAMGWYRQAPRKERELVAAITWSGGSTYYADSVKGRFTISRDNAKNTVYLQMNSLKPEDTAVYYCAADRRRWLYYGYDYWGQGTQVTVSS,high polyreactivity
12,QVQLVESGGGLVQAGGSLRLSCAATGRIFAYNTMGWYRQAPGKERELVAVITSGGSTNYADSVKGRFTISRDNAKNTVYLQMNSLNPEDTAVYYCAKRPYGRSGGSRYDYWGQGTQVTVSS,high polyreactivity
13,QVQLVESGGGLVQAGGSLRLSCAASGFTFSYNAMGWYRQAPGKERELVAAISSGGRTHYADSVKGRFTISRDNAKNTVYLQMNILKPEDTAVYYCNAQKYPRYSRTSGRNYNYWGQGTQVTVSS,high polyreactivity
14,QVQLVESGGGLVQAGGSLRLSCAASGINFNYYVMGWYRQAPGKERELVAAISRSGGRTRYADSVKGRFTISRDNAKNTVYLQMNSLKPEDTAVYYCAAVGSVNYDADFDYWGQGTQVTVSS,high polyreactivity
15,QVQLVESGGGLVQAGGSLRLSCAASGRIFKRYAMGWYRQAHGKERELVASITWSGGSTYYADSVKGRFTISRDNAKNTVYLQMNSLKPEDTEVYYCAARRTATTSRAYYYWGQGTQVTVSS,high polyreactivity
16,QVQLVESGGGLVQAGGSLRLSCAASGSTIYPNAMGWYRQAPGQERELVAVISSGGSTYYADSVKGRFTISRDNAKNTVYLQMNSLKPEDTAVYYCAADRGTVSYLYSPRAVDYWGQGTQVTVSS,low polyreactivity
17,QVQLVETGGGLVQAGGSFRLSCAASGGPFDTYVMGWYRQAPGKETELVAVITRGASTYYADSVKGRFTISRDNAKNTVYLQMNSLKPEETAVYYCAASFYSPDYYRFLYSFDYWGQGTQVTVSS,low polyreactivity
18,QVQLVESGGGLFQAGGSLRLSCAASGFTFVYYAMGWYRQAPGKERELVASISGGGRTYYADSVKGRFTISRENAKNTGYLQMNSLIPEDTAVYYCAARYWDYRNRWLYVYWGQGTQLTVSS,high polyreactivity
19,QVLMQESGGGLVQAGGSLRLSCAASGNIFSAGGMGWYRQAPVNERELVAGIGTATSTNYADSVKGRFTFSRDNAKNTVYLQMNSLKREDTAVYYCAAAYYSGLSHWYWGQGTQVTVSS,low polyreactivity
20,QVQLVESGGGLVQAGGSLRLSCAASGFIFAKYAMGWYRQAPGKERELVAAITSGGSTNYADSVKGRFTISRDNAKNTVYLQMNSLKPEYTAVYYCNRGFDWWYRYRHYDYWGQGTQVTVSS,low polyreactivity
21,QVQLVETGGGLVQAGGSLRLSCAPSGNTIIRYAMGWYRQAPGKERELVAAISYSGGRTYYADSVKGRFTISRDNAKNTVYLQMNSLKPEDTAVYYCNAASRYGGDYWGPGTQVTVSS,high polyreactivity
